Test [1] concerns the target HERV-K recombinant fusion protein K10Q18 (K-SU in pQE30, N-terminal 6-His) (human endogenous retrovirus K). Briefly: flow cytometry on dendritic cells pulsed with the protein. Background: A flow cytometer gives signals particle by particle.
Test [2] deals with T1, HERV-K env protein expressed endogenously by human cancer cell lines (human endogenous retrovirus K).
T1 chain: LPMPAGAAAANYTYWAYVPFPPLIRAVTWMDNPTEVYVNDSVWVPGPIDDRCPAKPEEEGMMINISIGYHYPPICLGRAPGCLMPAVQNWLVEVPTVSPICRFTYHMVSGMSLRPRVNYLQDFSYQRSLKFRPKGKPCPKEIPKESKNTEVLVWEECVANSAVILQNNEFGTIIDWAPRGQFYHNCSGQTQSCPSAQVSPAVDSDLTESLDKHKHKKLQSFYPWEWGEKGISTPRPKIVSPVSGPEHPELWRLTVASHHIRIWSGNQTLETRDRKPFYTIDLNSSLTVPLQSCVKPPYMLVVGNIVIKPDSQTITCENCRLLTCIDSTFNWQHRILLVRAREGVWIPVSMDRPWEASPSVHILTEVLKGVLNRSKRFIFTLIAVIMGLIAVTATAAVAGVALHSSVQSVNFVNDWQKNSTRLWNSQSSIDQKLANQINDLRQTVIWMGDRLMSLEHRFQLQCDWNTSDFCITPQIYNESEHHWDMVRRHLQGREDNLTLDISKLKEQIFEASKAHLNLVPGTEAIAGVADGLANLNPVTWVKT
Briefly: cell-based or functional assay.

Take anti-RGS monoclonal antibody (Qiagen): the percent of DCs positive in test [1] was greater than 70%.

B1: anti-HERV-K env monoclonal antibody 6H5 (antibody, V domains shown)
VH: MAQVKLQQSGPDLVKPGASVKISCKASGYSFTGYYMHWVKQSHGKSLEWIGRVNPNSGGTSYNQKFKDKAILTVDKSSSTAYMELRSLTSEDSAVYYCARSKGNYFYAMDY
VL: ASLAVSLGQRATISCRASESVDSHGTSFMHWYQQKPGQPPKFLIYRASNLESGIPARFSGSGSRTDFTLTINPVETDDVAIYYCQQSNEDPPTFGGGTKLEIK
In the case of B1, in test [2], the “IC50, cytotoxicity toward MCF-7 breast cancer cells (72 h, crystal violet)” value turned out to be 51.7 nM and the “IC50, cytotoxicity toward MDA-MB-231 breast cancer cells (72 h, crystal violet)” value came out at 6.6 nM.

For the origin of these results see patent US20140099324A1 (University of Texas, published 2014).
